The values that follow are results of earlier work, collected in article PMC9826382.

A word on the Kd: it is the free concentration of one partner at which half of the binding sites on the other are occupied at equilibrium, for simple one-to-one binding.

In the data set the target is HOP TPR2A (Homo sapiens) (UniProt P31948). Kind of data set: SPR.
Chain of UniProt P31948 (P31948 223-352): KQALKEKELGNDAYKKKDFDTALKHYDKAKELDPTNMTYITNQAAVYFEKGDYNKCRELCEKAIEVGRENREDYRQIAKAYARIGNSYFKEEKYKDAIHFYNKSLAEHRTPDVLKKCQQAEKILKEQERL

HSP90 C-terminal peptide: the Kd was 11 µM.
